# Measurements reported in US20240352075A1, “PACAP1-23 ANALOG GLYCOPEPTIDES AND METHODS FOR PRODUCING AND USING THE SAME” (priority 2021, published 2024).
# Primed or numbered codes have the meaning given here. Where no end group is shown, it is not given here. [ ]: non-standard residue; d: D form. Glc″ = glucose, glycoside on Ser; Lac′ = lactose, glycoside on Ser; Nva = CCC[C@H](N)C(=O)O
# T1: human VPAC2 (human, UniProt P41587 24-438)
# T1 sequence (looked up): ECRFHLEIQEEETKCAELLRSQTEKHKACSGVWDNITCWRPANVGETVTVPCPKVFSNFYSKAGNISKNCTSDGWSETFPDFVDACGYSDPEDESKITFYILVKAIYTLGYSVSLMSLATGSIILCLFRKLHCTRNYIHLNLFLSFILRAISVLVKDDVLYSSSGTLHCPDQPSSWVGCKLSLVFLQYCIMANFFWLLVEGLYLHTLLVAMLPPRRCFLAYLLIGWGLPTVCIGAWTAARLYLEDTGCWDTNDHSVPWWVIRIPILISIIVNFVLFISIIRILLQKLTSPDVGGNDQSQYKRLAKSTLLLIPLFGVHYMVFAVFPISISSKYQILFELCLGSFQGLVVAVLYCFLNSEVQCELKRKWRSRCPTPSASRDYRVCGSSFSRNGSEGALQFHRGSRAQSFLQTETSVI
# T2: human VPAC1 (human, UniProt P32241 31-457)
# T2 sequence (looked up): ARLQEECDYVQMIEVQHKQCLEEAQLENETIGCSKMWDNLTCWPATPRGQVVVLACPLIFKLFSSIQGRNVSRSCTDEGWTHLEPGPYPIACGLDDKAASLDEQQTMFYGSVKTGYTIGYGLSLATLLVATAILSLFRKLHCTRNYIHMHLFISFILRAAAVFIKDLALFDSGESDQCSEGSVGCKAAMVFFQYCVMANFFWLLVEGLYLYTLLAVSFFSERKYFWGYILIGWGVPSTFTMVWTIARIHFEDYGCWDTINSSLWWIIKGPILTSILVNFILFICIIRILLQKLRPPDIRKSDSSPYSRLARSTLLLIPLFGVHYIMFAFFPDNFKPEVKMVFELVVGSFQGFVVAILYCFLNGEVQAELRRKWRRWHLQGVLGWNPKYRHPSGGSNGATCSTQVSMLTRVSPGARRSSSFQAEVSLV
# T3: human PAC1 (human, UniProt P41586 21-468)
# T3 sequence (looked up): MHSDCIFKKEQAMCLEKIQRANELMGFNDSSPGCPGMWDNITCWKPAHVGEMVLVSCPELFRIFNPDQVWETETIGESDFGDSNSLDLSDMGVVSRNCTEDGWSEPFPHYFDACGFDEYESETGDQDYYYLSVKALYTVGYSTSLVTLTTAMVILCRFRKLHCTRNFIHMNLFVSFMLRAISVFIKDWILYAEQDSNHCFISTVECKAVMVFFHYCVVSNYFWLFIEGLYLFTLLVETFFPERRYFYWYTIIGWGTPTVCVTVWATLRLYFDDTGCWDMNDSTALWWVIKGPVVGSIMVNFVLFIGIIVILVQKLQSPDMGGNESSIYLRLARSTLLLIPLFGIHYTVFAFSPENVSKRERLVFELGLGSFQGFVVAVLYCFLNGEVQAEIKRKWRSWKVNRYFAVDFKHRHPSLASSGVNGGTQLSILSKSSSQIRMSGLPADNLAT
# Legend:
# Test in all cases: cell-based or functional assay
# human VPAC2 [1] = biological target: T1, human VPAC2
# human VPAC1 [2] = biological target: T2, human VPAC1
# human VPAC2 [3] = biological target: T1, human VPAC2; remark: listed apart in the source
# human PAC1 = biological target: T3, human PAC1
# human VPAC1 [4] = biological target: T2, human VPAC1; remark: listed apart in the source
# human VPAC2 [5] = biological target: T1, human VPAC2; remark: listed apart in the source
# human VPAC1 [6] = biological target: T2, human VPAC1; remark: listed apart in the source
Binder,"cAMP stimulation Emax (Table 1, differs from Table 3) (human VPAC2 [1]) [%]","cAMP stimulation EC50 (Table 1, differs from Table 3) (human VPAC1 [2]) [nM]","cAMP stimulation Emax (Table 1, differs from Table 3) (human VPAC1 [2]) [%]",cAMP stimulation EC50 (human VPAC2 [3]) [nM],cAMP stimulation Emax (human VPAC2 [3]) [%],cAMP stimulation EC50 (human PAC1) [nM],cAMP stimulation Emax (human PAC1) [%],cAMP stimulation EC50 (human VPAC1 [4]) [nM],cAMP stimulation Emax (human VPAC1 [4]) [%],selectivity for PAC1 versus VPAC2 (cAMP potency) (human VPAC2 [5]) [fold],selectivity for PAC1 versus VPAC1 (cAMP potency) (human VPAC1 [6]) [fold]
HSDAIFTDSYSRYRKQ[Nva]AVKKYLS(Lac′)-NH2 [CRA-TG-3026],190,35,124,321,115,7,181,38,95,,
HSDGIFTDSYSRYRKQ[Nva]AVKKYLS(Glc″)-NH2 [CRA-DV-3023],,,,,,0.64,,37,,~900,~60
